In the Human Domainome abundance scans (Beltran et al. 2025):

B1: TGF-beta-activated kinase 1 and MAP3K7-binding protein 3, residues 12 to 50; numbered along this chain, Q8N5C8 (parent)
chain: VLHDLRQRFPEIPEGVVSQCMLQNNNNLEACCRALSQES
B2: Tumor protein 63, residues 545 to 610; numbered along this chain, Q9H3D4 (parent)
chain: TDCSIVSFLARLGCSSCLDYFTTQGLTTIYQIEHYSMDDLASLKIPEQFRHAIWKGILDHRQLHEF

Variants of: B1
Test: abundance fitness (aPCA) (normalised: wild type 0, dead -1); higher = more abundant; growth selection in yeast, the domain comes from the species named
Conditions: Homo sapiens

Abundance fitness: each site, then its substitutions
S39: M -0.077, Q 0.039, L -0.045, R 0.121, C -0.083, A -0.255, F -0.213, G 0.001, P -0.041, W -0.137, K 0.052, Y -0.002, E -0.104, T 0.249
R33: P -0.731, S -0.174, H -0.137, T -0.127, F -0.271, A 0.04, G -0.454, E -0.056, N -0.315, V -0.115, Q -0.017, K -0.023, C -0.451, Y -0.459, D -0.239, W -0.259
A34: S -0.342, M -0.168, L -0.413, K -0.353, Q 0.028, C -0.373, V -0.135, R -0.49, H -0.117, E -0.056, Y -0.328, W -0.398, I -0.04, D -0.178, G -0.73, T -0.297, N -0.819
E29: V -0.895
A30: E -0.081, M -0.178, R -0.348, N -0.174, H -0.248, P -0.716, W -0.794, G -0.599, C -0.684, Q -0.178, I -0.838, T -0.568, K -0.214, V -0.55, S -0.402
L35: M -0.879, P -0.488, K -0.808, C -0.6, R -0.811, D -0.784, T -0.603, V -0.924, W -0.819, S -0.745, F -0.697, Q -0.629, H -0.469, A -0.793, E -0.504
Q37: A 0.084, N 0.151, S -0.014, I -0.107, M 0.043, V -0.122, E 0.102, R -0.003, D -0.042, Y -0.345, P -0.537, C -0.129, W -0.372, T -0.05, F -0.384, G 0.009, L 0.041, K 0.107, H -0.162
C31: D 0.122, M -0.732, T -0.219, E -0.467, Q -0.786, A -0.551, L -0.914, V -0.495, W -0.965, G -0.555, P -0.64, K -0.513, R -0.79, S -0.545, I -0.718, Y -0.895
S36: M -0.095, I -0.108, D -0.018, L -0.186, C -0.315, Y -0.489, V -0.365, R -0.031, K -0.014, E 0.166, W -0.571, G -0.194, H -0.314, A 0.08
E38: H 0.11, S -0.046, T -0.118, P -0.029, L 0.14, W 0.264, R 0.1, M 0.224, Y 0.093, Q 0.145, G -0.069, V -0.073, K 0.014, C 0.058, D -0.045, F 0.109
C32: N 0.023, G -0.575, M -0.076, F -0.579, Y -0.246, Q -0.368, P -0.664, D -0.484, S -0.226, E -0.176, R -0.589, H -0.171, V 0.176, A -0.21, L -0.291

Variants of: B2
Test: as above
Conditions: Homo sapiens

Abundance fitness: each site, then its substitutions
L9: C -0.344, P -0.928, K -1, F -0.626, S -0.869, D -0.474, R -0.83, Q -1.03, T -1.04, A -1, I -0.421, H -1.02, E -0.666, Y -0.783, M -0.272, G -0.622, W -0.955, N -0.814
A10: Q -0.15, H -0.16, W -0.18, I -0.203, G -0.1, L -0.063, K -0.092, F -0.167, N -0.146, D -0.145, Y -0.164, T -0.134, S -0.104, V -0.15, C -0.214, E -0.003
D2: L -0.338, R -0.202, S -0.101, G -0.11, P -0.132, N -0.053, T -0.185, W -0.275, Y -0.182, A -0.147, E -0.079, H -0.17, K -0.099, C -0.19, Q -0.127, F -0.184, V -0.22
R11: H -0.127, I -0.126, G -0.071, D -0.09, C -0.155, F -0.268, K -0.02, E -0.038
V6: M -0.017, I -0.034, T 0.016, S 0.003, D -0.013, A 0.028, C -0.111, G -0.032, P -0.077, Y -0.11, W -0.073, R -0.012, K 0.009, F -0.06, N -0.031, E -0.067, L -0.007
C3: V -0.15, Q -0.031, G -0.069, R -0.051, H -0.08, F -0.018, M -0.005, L -0.033, T -0.015, I -0.029, S -0.011, K -0.075, N -0.021, A -0.098, W -0.082, Y 0, D -0.043
S4: G -0.104, L -0.038, P -0.17, T -0.04, V -0.632, F -0.158, M -0.063, E -0.066, C -0.16, K -0.075, D -0.05, H -0.114, Q -0.078, W -0.224, Y -0.164
F8: I -0.272, R -0.918, Y -0.329, N -0.796, L -0.052, M -0.029, C -0.583, K -0.961, W -0.024, Q -0.835, T -0.592, P -0.938, G -1.01, E -0.711, S -0.822, A -0.58, H -0.41
S7: I -0.234, H -0.069, K -0.028, N -0.006, G -0.045, P -0.113, D -0.056, E -0.024, W -0.132, Q -0.067, L -0.137, T -0.012, C -0.026, Y -0.053, R -0.086, M -0.108, F -0.082
T1: M -0.041, R -0.199, D -0.039, A -0.064, V -0.058, S -0.047, Q -0.033, G -0.027, W -0.047, I -0.006, P -0.458, N -0.04, C -0.063, Y -0.074, K -0.122, F -0.034, H -0.361, E -0.021
I5: T -0.479, L -0.005, M -0.021, H -0.647, V -0.096, N -0.915, E -0.976, G -0.878, K -0.921, F -0.362, S -0.856, P -1.04, D -0.997, Y -0.971, Q -0.973, R -1.01
